# Source: IntAct's records for PubMed 25006247
# B1: Pyrin (Homo sapiens), O15553 (parent)
# chain: MAKTPSDHLLSTLEELVPYDFEKFKFKLQNTSVQKEHSRIPRSQIQRARPVKMATLLVTYYGEEYAVQLTLQVLRAINQRLLAEELHRAAIQEYSTQENGTDDSAASSSLGENKPRSLKTPDHPEGNEGNGPRPYGGGAASLRCSQPEAGRGLSRKPLSKRREKASEGLDAQGKPRTRSPALPGGRSPGPCRALEGGQAEVRLRRNASSAGRLQGLAGGAPGQKECRPFEVYLPSGKMRPRSLEVTISTGEKAPANPEILLTLEEKTAANLDSATEPRARPTPDGGASADLKEGPGNPEHSVTGRPPDTAASPRCHAQEGDPVDGTCVRDSCSFPEAVSGHPQASGSRSPGCPRCQDSHERKSPGSLSPQPLPQCKRHLKQVQLLFCEDHDEPICLICSLSQEHQGHRVRPIEEVALEHKKKIQKQLEHLKKLRKSGEEQRSYGEEKAVSFLKQTEALKQRVQRKLEQVYYFLEQQEHFFVASLEDVGQMVGQIRKAYDTRVSQDIALLDALIGELEAKECQSEWELLQDIGDILHRAKTVPVPEKWTTPQEIKQKIQLLHQKSEFVEKSTKYFSETLRSEMEMFNVPELIGAQAHAVNVILDAETAYPNLIFSDDLKSVRLGNKWERLPDGPQRFDSCIIVLGSPSFLSGRRYWEVEVGDKTAWILGACKTSISRKGNMTLSPENGYWVVIMMKENEYQASSVPPTRLLIKEPPKRVGIFVDYRVGSISFYNVTARSHIYTFASCSFSGPLQPIFSPGTRDGGKNTAPLTICPVGGQGPD
# Variants of: B1
# Settings: with asc_human PYCARD
row,effect of a mutation on the interaction,Variant
1,decreasing interaction strength,R80A
2,with no effect,Q29A
3,with no effect,E84A
4,decreasing interaction strength,L10A
5,decreasing interaction strength,L71A
6,with no effect,K3A
7,with no effect,H37A
8,with no effect,A89T
9,with no effect,Q46A
10,decreasing interaction strength,R42A
11,decreasing interaction strength,R42W
12,increasing interaction strength,V58A
13,decreasing interaction strength,E14A
14,decreasing interaction strength,R75A
15,with no effect,K35A
16,increasing interaction strength,E63A
17,disrupting interaction strength,K25A
18,increasing interaction strength,E22A
19,with no effect,R88A
20,with no effect,R49A

# Variants of: B1
# Settings: with asc_human PYCARD
# Remark: another data set of the same source
row,effect of a mutation on the interaction,Variant
1,with no effect,R42W
